The values below come from publication PMC4872103.

Data set [1] deals with T1, PU.1 ETS domain (PU.1ΔN167) (murine, UniProt P17433 167-272). The experiment in a line: competition.
For data set [2], the target named is T1, PU.1 ETS domain (PU.1ΔN167). The experiment in a line: competition. This is another data set of the same source.
The target is the same in data set [3]. The experiment in a line: fluorescence anisotropy.

B1: [5']AGC (dsDNA)
DNA 1: GCGAATAAGCGGAAGTGAAACCG
DNA 2: CGGTTTCACTTCCGCTTATTCGC
On to B1, for which the binding signal in data set [1] was ~1 Kd ratio to Cy3-[5']AGC (equal within experimental uncertainty).

B2: NS (dsDNA)
DNA 1: GCGAATAAGCGAGAGTGAAACCG
DNA 2: CGGTTTCACTCTCGCTTATTCGC
Take B2: in data set [2], the binding result was “no binding”.

B3: Alexa Fluor 488 end-labeled duplex (dsDNA)
DNA 1: CAAGCGGAAGTGAG
DNA 2: CTCACTTCCGCTTG
Regarding B3, the binding result in data set [3] is given as “binds”.
